Measured values from paper PMC3282809 (Diabetes, 2012).

Target: the molecule itself
Assay: cross-linking + co-IP

B1: endogenous sorcin (MIN6 β-cells) (natural protein, mouse (endogenous in MIN6), UniProt Q6P069 1-198, looked up)
chain: MAYPGHPGAGGGYYPGGYGGAPGGPAFPGQTQDPLYGYFAAVAGQDGQIDADELQRCLTQSGIAGGYKPFNLETCRLMVSMLDRDMSGTMGFNEFKELWAVLNGWRQHFISFDSDRSGTVDPQELQKALTTMGFRLSPQTVNSVAKRYSTSGKITFDDYIACCVKLRALTDSFRRRDSGQQGVVNFSYDDFIQCVMTV
stoichiometry N: 2
